From article PMC4482598

Target: ryanodine receptor type 1 (RyR1), endogenous in mouse myotubes (mouse (endogenous in mouse myotubes)) (UniProt E9PZQ0)
UniProt E9PZQ0, sequence (E9PZQ0 whole entry): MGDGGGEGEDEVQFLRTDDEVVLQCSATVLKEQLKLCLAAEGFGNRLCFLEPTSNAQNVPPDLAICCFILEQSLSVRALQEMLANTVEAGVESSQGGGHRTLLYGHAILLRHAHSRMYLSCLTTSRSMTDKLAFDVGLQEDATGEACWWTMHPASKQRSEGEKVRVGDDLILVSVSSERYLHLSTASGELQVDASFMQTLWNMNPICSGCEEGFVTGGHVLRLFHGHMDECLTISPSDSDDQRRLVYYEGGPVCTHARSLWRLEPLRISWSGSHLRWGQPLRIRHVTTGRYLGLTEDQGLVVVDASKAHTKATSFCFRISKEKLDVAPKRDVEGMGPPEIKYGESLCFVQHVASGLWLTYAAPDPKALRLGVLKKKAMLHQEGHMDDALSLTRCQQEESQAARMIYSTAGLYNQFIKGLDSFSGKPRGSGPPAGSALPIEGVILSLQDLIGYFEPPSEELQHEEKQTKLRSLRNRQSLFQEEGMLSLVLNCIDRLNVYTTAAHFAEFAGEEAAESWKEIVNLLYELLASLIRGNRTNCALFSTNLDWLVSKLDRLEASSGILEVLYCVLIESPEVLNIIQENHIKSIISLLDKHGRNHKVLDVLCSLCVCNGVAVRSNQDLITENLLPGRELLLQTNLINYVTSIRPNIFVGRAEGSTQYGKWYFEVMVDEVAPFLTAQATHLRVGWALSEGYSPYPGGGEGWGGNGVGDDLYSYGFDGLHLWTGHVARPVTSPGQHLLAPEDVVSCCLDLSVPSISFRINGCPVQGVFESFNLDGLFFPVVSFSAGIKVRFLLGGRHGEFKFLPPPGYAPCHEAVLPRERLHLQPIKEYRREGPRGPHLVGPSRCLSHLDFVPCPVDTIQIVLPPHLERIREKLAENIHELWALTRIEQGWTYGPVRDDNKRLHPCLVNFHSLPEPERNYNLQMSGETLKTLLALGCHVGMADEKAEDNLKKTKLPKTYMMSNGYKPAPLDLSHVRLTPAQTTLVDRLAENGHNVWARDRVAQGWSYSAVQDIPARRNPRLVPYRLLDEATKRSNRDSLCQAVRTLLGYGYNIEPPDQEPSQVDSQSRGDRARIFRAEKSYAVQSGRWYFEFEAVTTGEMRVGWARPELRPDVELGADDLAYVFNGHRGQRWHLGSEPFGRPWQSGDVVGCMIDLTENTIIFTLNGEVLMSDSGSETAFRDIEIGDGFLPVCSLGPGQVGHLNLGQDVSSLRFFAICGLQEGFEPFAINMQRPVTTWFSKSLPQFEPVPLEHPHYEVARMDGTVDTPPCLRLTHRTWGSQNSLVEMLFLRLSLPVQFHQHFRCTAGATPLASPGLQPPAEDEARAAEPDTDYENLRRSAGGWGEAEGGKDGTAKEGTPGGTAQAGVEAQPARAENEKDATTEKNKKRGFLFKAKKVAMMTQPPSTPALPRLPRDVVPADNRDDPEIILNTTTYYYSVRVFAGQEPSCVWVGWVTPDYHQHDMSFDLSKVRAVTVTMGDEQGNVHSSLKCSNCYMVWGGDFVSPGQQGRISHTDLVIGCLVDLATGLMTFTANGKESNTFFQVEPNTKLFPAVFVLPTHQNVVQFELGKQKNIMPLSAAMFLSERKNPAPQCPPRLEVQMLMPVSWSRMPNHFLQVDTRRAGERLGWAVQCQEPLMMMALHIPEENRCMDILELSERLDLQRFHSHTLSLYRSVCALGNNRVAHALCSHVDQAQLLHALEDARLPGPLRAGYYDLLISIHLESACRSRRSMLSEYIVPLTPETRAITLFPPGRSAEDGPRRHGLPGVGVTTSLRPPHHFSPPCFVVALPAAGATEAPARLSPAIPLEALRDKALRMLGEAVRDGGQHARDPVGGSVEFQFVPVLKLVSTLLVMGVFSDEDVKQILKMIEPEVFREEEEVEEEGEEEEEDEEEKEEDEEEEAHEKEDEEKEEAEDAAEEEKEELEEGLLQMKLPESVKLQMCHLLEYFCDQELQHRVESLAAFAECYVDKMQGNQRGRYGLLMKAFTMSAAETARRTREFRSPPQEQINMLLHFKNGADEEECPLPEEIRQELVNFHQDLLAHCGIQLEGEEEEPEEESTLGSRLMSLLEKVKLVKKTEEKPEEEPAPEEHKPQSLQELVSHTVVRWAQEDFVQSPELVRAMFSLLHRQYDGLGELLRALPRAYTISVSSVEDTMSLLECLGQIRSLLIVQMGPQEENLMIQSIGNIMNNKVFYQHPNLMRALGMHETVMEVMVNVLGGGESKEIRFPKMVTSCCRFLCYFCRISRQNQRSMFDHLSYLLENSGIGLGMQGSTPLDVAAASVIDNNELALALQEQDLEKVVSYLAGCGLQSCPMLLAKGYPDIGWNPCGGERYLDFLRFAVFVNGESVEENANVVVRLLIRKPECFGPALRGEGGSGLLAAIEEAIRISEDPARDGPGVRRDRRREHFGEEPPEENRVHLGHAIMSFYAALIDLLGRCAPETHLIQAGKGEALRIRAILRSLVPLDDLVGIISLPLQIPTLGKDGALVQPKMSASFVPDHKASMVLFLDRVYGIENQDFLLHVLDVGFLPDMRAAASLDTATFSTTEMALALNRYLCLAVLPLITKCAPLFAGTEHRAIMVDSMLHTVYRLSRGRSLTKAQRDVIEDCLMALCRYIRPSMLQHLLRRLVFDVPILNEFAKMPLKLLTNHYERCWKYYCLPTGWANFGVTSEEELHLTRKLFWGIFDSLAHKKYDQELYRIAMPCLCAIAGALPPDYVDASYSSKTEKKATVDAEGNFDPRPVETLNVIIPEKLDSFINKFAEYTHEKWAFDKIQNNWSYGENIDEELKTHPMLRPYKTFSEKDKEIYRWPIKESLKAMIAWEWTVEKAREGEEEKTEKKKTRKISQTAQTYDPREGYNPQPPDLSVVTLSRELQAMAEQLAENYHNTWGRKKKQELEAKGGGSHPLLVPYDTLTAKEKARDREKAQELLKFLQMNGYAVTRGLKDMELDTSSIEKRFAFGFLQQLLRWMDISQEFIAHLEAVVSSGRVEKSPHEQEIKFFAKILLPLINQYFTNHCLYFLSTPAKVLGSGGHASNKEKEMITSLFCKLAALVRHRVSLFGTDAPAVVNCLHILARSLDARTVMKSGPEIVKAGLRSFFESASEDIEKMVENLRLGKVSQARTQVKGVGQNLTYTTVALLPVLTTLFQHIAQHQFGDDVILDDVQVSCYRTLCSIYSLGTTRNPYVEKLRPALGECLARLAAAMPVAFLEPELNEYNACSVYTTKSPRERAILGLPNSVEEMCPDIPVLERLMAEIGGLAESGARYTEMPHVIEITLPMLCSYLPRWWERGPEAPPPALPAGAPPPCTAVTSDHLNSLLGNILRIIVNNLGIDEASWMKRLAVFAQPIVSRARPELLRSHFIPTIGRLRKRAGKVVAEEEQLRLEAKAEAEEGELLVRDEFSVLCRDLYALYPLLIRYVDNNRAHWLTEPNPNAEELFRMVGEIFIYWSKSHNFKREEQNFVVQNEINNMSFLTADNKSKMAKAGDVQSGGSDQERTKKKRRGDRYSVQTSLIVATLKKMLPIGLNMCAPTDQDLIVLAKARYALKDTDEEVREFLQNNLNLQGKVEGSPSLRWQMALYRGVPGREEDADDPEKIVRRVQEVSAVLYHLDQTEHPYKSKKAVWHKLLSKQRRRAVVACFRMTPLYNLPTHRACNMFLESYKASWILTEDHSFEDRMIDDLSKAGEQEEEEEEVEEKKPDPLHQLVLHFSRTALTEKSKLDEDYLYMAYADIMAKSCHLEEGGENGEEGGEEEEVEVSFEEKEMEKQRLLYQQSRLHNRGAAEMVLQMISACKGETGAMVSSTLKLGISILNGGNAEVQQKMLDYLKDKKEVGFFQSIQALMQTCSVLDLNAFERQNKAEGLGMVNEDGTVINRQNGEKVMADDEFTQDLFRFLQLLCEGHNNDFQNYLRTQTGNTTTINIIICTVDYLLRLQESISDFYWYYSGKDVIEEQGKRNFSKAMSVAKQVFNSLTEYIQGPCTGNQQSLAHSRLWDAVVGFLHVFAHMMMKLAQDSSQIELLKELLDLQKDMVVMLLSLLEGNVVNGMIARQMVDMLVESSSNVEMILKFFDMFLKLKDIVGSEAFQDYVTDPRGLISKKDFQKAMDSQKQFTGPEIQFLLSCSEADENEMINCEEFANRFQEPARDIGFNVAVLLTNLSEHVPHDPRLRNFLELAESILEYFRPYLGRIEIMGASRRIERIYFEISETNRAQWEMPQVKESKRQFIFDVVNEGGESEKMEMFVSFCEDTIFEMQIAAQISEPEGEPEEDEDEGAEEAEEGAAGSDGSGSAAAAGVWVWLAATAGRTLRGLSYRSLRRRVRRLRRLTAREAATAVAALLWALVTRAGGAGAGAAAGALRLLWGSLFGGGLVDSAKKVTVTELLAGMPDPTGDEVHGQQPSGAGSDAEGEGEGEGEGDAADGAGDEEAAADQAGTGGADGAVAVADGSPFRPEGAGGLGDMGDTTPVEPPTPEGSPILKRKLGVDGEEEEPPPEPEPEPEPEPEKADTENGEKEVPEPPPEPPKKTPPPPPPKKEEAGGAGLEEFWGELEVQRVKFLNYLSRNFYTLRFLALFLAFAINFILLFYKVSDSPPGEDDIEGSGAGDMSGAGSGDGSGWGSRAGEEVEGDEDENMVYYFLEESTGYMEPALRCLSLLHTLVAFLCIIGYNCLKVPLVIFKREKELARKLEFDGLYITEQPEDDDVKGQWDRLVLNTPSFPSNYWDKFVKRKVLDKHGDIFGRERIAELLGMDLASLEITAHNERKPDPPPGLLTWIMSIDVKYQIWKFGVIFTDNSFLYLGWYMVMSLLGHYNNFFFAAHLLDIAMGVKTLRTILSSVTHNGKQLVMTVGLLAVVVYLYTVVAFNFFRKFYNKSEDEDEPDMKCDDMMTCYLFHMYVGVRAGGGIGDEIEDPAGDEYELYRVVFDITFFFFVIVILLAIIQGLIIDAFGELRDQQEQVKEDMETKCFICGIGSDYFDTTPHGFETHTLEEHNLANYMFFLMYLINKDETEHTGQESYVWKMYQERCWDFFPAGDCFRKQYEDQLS

## H458 CCPGCC ß1a-CFP (construct 21) (natural protein)
  intramolecular FRET efficiency (C-terminal CFP to FlAsH at H458) of construct 21 in ß1 KO myotubes (control without native ß1 subunits): 0.12
